Laboratory results as given in patent JP2012233002A.
Blank lines part the entries; values can stand above or below the substance they belong to.

Tests used:
[1] = biological target: 凝集型Aβ1−42 (aggregated synthetic Aβ1-42) (human) (UniProt P05067); test: ELISA on aggregated synthetic Aβ1-42
[2] = biological target: 可溶性Aβ1−42 (soluble synthetic Aβ1-42 sonicated in DMSO, 125I-labelled) (human) (UniProt P05067); test: capture radioimmunoassay, 50,000 CPM 125I-Aβ1-42 (or 125I-Aβ1-40)
[3] = biological target: Aβ (β-amyloid peptide; length and physical form not specified in the assay) (human) (UniProt P05067); test: BIAcore (SPR)
[4] = biological target: Aβ (β-amyloid peptide; length and physical form not specified in the assay) (human) (UniProt P05067); test: Biacore (SPR)

- affinity (親和性) [1]: < 1 nM
- percent of radioactive counts bound at 10 μg/ml antibody [2]: 2%
Substance: マウス10D5 (mouse monoclonal antibody 10D5)

- Kd [3]: 0.88 nM
Substance: マウス3D6 (mouse monoclonal antibody 3D6)

- Kd [4]: 38 nM
Substance: 組換えマウス12A11Cγ2a(アイソタイプスイッチ12A11) (antibody)
